Square brackets hold non-standard residues; d marks the D form. Ends that are not written are not given here. Arg(Me2a) = CN(C)C(=N)NCCC[C@H](N)C(=O)O; Lys(Me3) = C[N+](C)(C)CCCC[C@H](N)C(=O)O; Arg(Me2s) = CN=C(NC)NCCC[C@H](N)C(=O)O; pT = C[C@@H](OP(=O)(O)O)[C@H](N)C(=O)O; Lys(Me2) = CN(C)CCCC[C@H](N)C(=O)O; pS = N[C@@H](COP(=O)(O)O)C(=O)O; Lys(Me) = CNCCCC[C@H](N)C(=O)O; Me2a = not defined here; me2a = not defined here
Legend:
[1] = molecular target: T1, CaBdf1 BD1 (GST-tagged, wild-type) (Candida albicans (strain SC5314 / ATCC …, UniProt Q5A4W8)); test: histone peptide array (Active Motif MODified), 1 uM GST-tagged bromodomain, anti-GST detection, normalized mean intensity
T1 chain: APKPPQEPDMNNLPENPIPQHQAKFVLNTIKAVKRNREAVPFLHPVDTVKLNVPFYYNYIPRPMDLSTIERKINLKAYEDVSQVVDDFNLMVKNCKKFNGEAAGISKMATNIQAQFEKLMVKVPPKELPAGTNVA

[2] = molecular target: T2, CaBdf1 BD2 (GST-tagged, wild-type) (Candida albicans (strain SC5314 / ATCC …, UniProt Q5A4W8)); test: as above
T2 chain: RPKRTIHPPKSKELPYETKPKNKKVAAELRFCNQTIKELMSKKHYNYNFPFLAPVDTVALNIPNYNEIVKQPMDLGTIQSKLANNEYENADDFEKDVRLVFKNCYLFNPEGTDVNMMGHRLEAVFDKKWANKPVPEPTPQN

Binder	binding score [1]	binding score [2]
ARTKQTARKSTGGKAPRKQ (A R T Kac Q T A Rme2s Kme3 S T G G K A P R K Q)	0.00689	0.00407
ARTKQTARKSTGGKAPRKQ (A R T Kme2 Q T A Rme2a Kme1 S T G G K A P R K Q)	0.0363	0.00666
R[Arg(Me2s)]K[Lys(Me)]K(Ac)R[Arg(Me2a)][Lys(Me2)]K[Lys(Me3)]R[Lys(Me)][Arg(Me2s)]KK(Ac)RK [background 02]	0.00906	0.00444
ARTKQTARKSTGGKAPRKQ (A Rme2a T Kme3 Q T A Rme2s Kac S T G G K A P R K Q)	0.0337	0.0037
ARTKQTARKSTGGKAPRKQ (A R T K Q T A R Kac pS T G G K A P R K Q)	0.00435	0.00407
ARTKQTARKSTGGKAPRKQ (A R T K Q T A R K pS pT G G K A P R K Q)	0.00326	0.00407
SGRGKGGKGLGKGGAKRHR (not fully specified; histone peptide post-translational modifications (acetyl, methyl, phospho, citrulline) listed in columns 4-7 and embedded in the sequence text; N-terminus free or acetylated in column 8)	0.00725	0.00999
PRKQLATKAAR(Me2s)K(Me3)[pS]APATGG	0.00109	0.00629
AR(me2a)TK(Ac)QTAR(me2a)K(Me)STGGKAPRKQ (reading uncertain)	0.00761	0.00888
PRKQLATKAARK(Me3)[pS]APATGG	0.0029	0.00074
ARTKQTARKSTGGKAPRKQ (A Rme2a T Kme2 Q T A Rme2s Kme1 S T G G K A P R K Q)	0.00399	0.0037
ARTKQTARKSTGGKAPRKQ (A Rme2a T Kac Q T A Rme2s Kme1 S T G G K A P R K Q)	0.00471	0.00296
RKSAPATGGVKKPHRYRPG (R K S A P A T G G V Kme3 K P H R Y R P G) [H3 26-45]	0.00761	0.00777
SGRGKQGGKARAK(Ac)AKSRSS	0.0943	0.0141
PRKQLATKAARK(Me)[pS]APATGG	0.0029	0.00333
ARTKQTARKSTGGKAPRKQ (A R pT Kme2 Q T A R K S T G G K A P R K Q)	0.00326	0.0037
SGRGKGGKGLGKGGAKRHR (pS G Rme2s G K G G K G L G K G G A K R H R)	0.00508	0.00333
ARTKQTARKSTGGKAPRKQ (A Rme2a T Kme3 Q T A Rme2a Kac S T G G K A P R K Q)	0.0392	0.00999
ARTKQTARKSTGGKAPRKQ (A Rme2a T Kac Q T A Rme2a K S T G G K A P R K Q)	0.00399	0.00592
ARTKQTARKSTGGKAPRKQ (A R T K Q T A Rme2s Kac S pT G G K A P R K Q)	0.00363	0.00407
ARTKQTA[Arg(Me2s)]K(Ac)[pS]TGGKAPRKQ	0.00363	0.00296
ARTKQTA[Arg(Me2a)]K(Me)[pS]TGGKAPRKQ	0.00326	0.00407
ARTKQTA[Arg(Me2a)]K(Ac)[pS]TGGKAPRKQ	0.00399	0.00407
ARTKQTARKSTGGKAPRKQ (A R T K Q T A R K S pT G G K A P R K Q)	0.00326	0.00037
PRKQLATKAA[Arg(Me2a)]K(Me)SAPATGG	0.00399	0.00444

Binder	binding score [1]	binding score [2]
ARTKQTARKSTGGKAPRKQ (A R T K Q T A R Kme1 S T G G K A P R K Q)	0.00435	0.00407
PRKQLATKAAR(Me2s)K(Ac)SAPATGG	0.0123	0.00814
PRKQLATKAAR(Me2a)K(Ac)SAPATGG (reading uncertain)	0.0189	0.00999
SGRGKQGGKARAKAKSRSS (not fully specified)	0.0087	0.00259
AR(Me2s)TK(Ac)QTARKSTGGKAPRKQ	0.00616	0.00074
AR(Me2a)[pT]K(Ac)QTARKSTGGKAPRKQ (reading uncertain)	0.00943	0.00111
A[Arg(Me2a)]T[Lys(Me2)]QTA[Arg(Me2s)][Lys(Me2)]STGGKAPRKQ	0.0029	0.00666
ARTKQTARKSTGGKAPRKQ (A Rme2s T Kme1 Q T A Rme2s Kme2 S T G G K A P R K Q)	0.00254	0.00333
PRKQLATKAAR(Me2s)K(Me)[pS]APATGG	0.00254	0.00259
SGRGK(Ac)QGGK(Ac)ARAKAKSRSS	0.0283	0.0133
PRKQLATKAAR(Me2s)K(Me)SAPATGG	0.00435	0.00296
SGRGKGGKGLGKGGAKRHR (S G R G K G G K G L G K G G A Kac R H R)	0.0149	0.00296
ARTKQTARKSTGGKAPRKQ (A Rme2s pT Kme2 Q T A R K S T G G K A P R K Q)	0.00363	0.00333
A[Arg(Me2a)]T[Lys(Me3)]QTA[Arg(Me2a)][Lys(Me)]STGGKAPRKQ	0.00435	0.00851
[pS]GRGK(Ac)QGGKARAKAKSRSS	0.0156	0.0215
ARTKQTARKSTGGKAPRKQ (A Rme2a T Kme2 Q T A Rme2s Kac S T G G K A P R K Q)	0.0435	0.00333
SGRGKGGKGLGKGGAKRHR (S G Rme2a G Kac G G Kac G L G K G G A K R H R)	0.0558	0.0411
SGRGKGGKGLGKGGAKRHR (pS G Rme2a G K G G K G L G K G G A K R H R)	0.00471	0.00148
PRKQLATKAARKSAPATGG (not fully specified)	0.00798	0.00111
ARTKQTARKSTGGKAPRKQ (A Rme2s T Kac Q T A Rme2s Kac S T G G K A P R K Q)	0.041	0.00629
ARTKQTARKSTGGKAPRKQ (A R T Kac Q T A Rme2a Kme3 S T G G K A P R K Q)	0.0087	0.00592
SGRGKGGKGLGKGGAKRHR (S G R G K G G Kac G L G Kac G G A Kac R H R)	0.201	0.16
[pS]GRGK(Ac)QGGK(Ac)ARAK(Ac)AKSRSS	0.0515	0.00888
ARTKQTARKSTGGKAPRKQ (A Rme2s T Kme1 Q T A R Kme3 S T G G K A P R K Q)	0.00326	0.00259
ARTKQTARKSTGGKAPRKQ (A Rme2s T Kme3 Q T A R K S T G G K A P R K Q)	0.00363	0

Reference: PMC5454392, “Selective BET bromodomain inhibition as an antifungal therapeutic strategy” (Nature Communications, 2017)
